Source: patent US20180298401A1 (CORNELL UNIVERSITY, published 2018)

Columns and labels:
[1] = biological target: T1, Large subunit (LSU) of Synechococcus elongatus PCC7942 Rubisco (Synechococcus elongatus PCC7942, UniProt Q31NB3 1-472); assay: native PAGE with Coomassie stain and immunoblots
T1 construct: also called cyanobacterial LSU; Se LSU

[2] = biological target: T2, Rubisco from the cyanobacterium Synechococcus elongatus PCC7942 (hexadecameric holoenzyme of eight LSU and … (Synechococcus elongatus PCC7942, UniProt Q31NB3 1-472; Q31NB2 1-111); assay: quantitative immunoblots of SeLSM35 leaf homogenates against purified protein standards
T2 construct: also called Se7942 Rubisco; cyanobacterial Rubisco
Source text: SDS page, immunoblot and determination of CcmM35/Rubisco content. The crude leaf homogenates used in the carboxylase activity measurements were separated by SDS-PAGE using 4-20% polyacrylamide gradient gels (ThermoScientific, UK). For each sample, the same amount of protein, as determined by Bradford assay, was loaded onto the gel. After electrophoresis, the resolved proteins were transferred to a nitrocellulose membrane (Hybond-C Extra from GE Healthcare Life Sciences) using a western blot apparatus. The nitrocellulose membranes were immunoblotted using one of four primary polyclonal antibodies raised against: cyanobacterial (SePCC6301) Rubisco; tobaccoRubisco; the small subunit of tobacco Rubisco; and CcmM from Se PCC7942. The primary polyclonal antibody to detect CcmM35 was generated in rabbit with His-tagged CcmM58 protein purified from E. coli (Cambridge Research Biochemicals, UK) and used at a dilution of 1:500 in the immunoblots and from 1:500 to 1:2,000 for immunogold labelling, and was highly specific for CcmM (FIG. 2a). The primary antibodies were visualized by means of a secondary goat anti-rabbit peroxidase-conjugated antibody (Sigma). The absolute and relative content of Synechococcus Rubisco and CcmM35 in SeLSM35 leaves were determined using immunoblots with antibodies against CcmM and cyanobacterial Rubisco. […]

| binding result [1] | stoichiometry of CcmM35 per Rubisco holoenzyme [2] | Binder |
| --- | --- | --- |
| binds | – | Small subunit (SSU) of Synechococcus elongatus PCC7942 Rubisco (enzyme, UniProt Q31NB2 1-111, looked up, also called cyanobacterial SSU; Se-rbcS product) MSMKTLPKERRFETFSYLPPLSDRQIAAQIEYMIEQGFHPLIEFNEHSNPEEFYWTMWKLPLFDCKSPQQVLDEVRECRSEYGDCYIRVAGFDNIKQCQTVSFIVHRPGRY |
| – | ~4.5 CcmM35 per Rubisco holoenzyme | CcmM35, internal carboxysomal protein of Synechococcus elongatus PCC7942 (other, UniProt Q03513-2 1-324, looked up, domain: CcmM35; CcmM35 lacks the amino-terminal domain; Untagged as expressed in the SeLSM35 tobacco line; also called Se-ccmM35 product) MSAYNGQGRLSSEVITQVRSLLNQGYRIGTEHADKRRFRTSSWQPCAPIQSTNERQVLSELENCLSEHEGEYVRLLGIDTNTRSRVFEALIQRPDGSVPESLGSQPVAVASGGGRQSSYASVSGNLSAEVVNKVRNLLAQGYRIGTEHADKRRFRTSSWQSCAPIQSSNERQVLAELENCLSEHEGEYVRLLGIDTASRSRVFEALIQDPQGPVGSAKAAAAPVSSATPSSHSYTSNGSSSSDVAGQVRGLLAQGYRISAEVADKRRFQTSSWQSLPALSGQSEATVLPALESILQEHKGKYVRLIGIDPAARRRVAELLIQKP |
